B1: recombinant Mn oxidase complex: recombinantly produced Bacillus sp. PL-12 manganese oxidase complex comprising MnxG, MnxE and MnxF, expressed in E. coli (protein, listed as Bacillus sp.)
chain 1: HVFHYHVHQWLGDSSNINAEILDAQSISPQTHYSIQPLYGLGSLHGAIGDSIIHCHLYPHFGIGMWGINRVFDTLQDGSQCYPNGVRIDALKPLPDRPAPPKPTREKPGFPNFIPGKVGYKAPRPPLGIVGGREMTELERNAAIPNPRPGAVFVDPCLDQDPVVVEFNVSAIEMPVVYNKQGWHDPKARFYVMDEDLDDILSGKKEPEPLVFHVPAGTCIRMNYTNRMPHILDGDAFQLVTRTYENGFHIHFVKFDVLACDGGNVGWNYDSAVLPGQTIRYEWYAETELKAWFFHDHLF
chain 2: MHDSPLKSLSAASNVASVNDPLFDFFNKHMGKQILIITESSQLNILGQTFRPIFCGKVAEVEPGHLTLSPVTIKILNAPFHKFPIPLSIPFEKIAHFTTDVDCSMRIPLV
chain 3: MEALFPMSTDYSKMTDVNEIHDSAILEHFRNGIGHKTLVISPSYPYMFVGIIKELIGDTVMIDVETTHFAQLENREWYIHIHNIEVFYIERPGAPKIPKLEDY

Experiments:
Bacillus subtilis CotA = conditions: described in Durão P et al, 2008; cited from earlier work
B. licheniformis CotA = conditions: described in Koschorreck K et al, 2008; cited from earlier work
[1] = 2,6-DMP oxidation kinetics, absorbance at 468 nm; assay type: biochemical; conditions: Phosphate-citrate buffer
Protocol: (§1) Kinetic experiments were performed on the Molecular Devices SpectraMax® M2 microplate reader spectrophotometer at 22° C. with purified protein. […] Reactions were carried out with 10 μg Mnx (final 240 nM) 100 mM in phosphate-citrate buffer pH 3-8 and 20 mM CHES, HEPES, and MES at pH 7-10. Dimethoxyphenol (DMP) oxidation was followed by measuring the increase in absorbance at 468 nm and ε=49.6 mM-1 cm-1. These assays were performed in at least two independent trials in triplicate. Fe(II) (ferrous ammonium sulfate) oxidation was measured by quenching 200 μl reactions with 50 μl of the Fe(II) chelating colorimetric assay FerroZine® (15 mM) and a ferrous ammonium sulfate standard curve, noting the absorbance at 570 nm. Fe(II) oxidation reactions were performed with 10 μg recombinant Mn oxidase complex in 100 mM Na acetate-acetic acid buffer (pH 4-5.5). Mn(II) (MnCl2) oxidation in 20 mM HEPES (pH 7-8.5) was measured by quenching 5 μl of 200 μl reactions with 195 μl leucoberbelin blue (LBB) colorimetric reagent and reading the absorbance at 618 nm. […] These slopes were converted to the appropriate kinetic units, plotted, and fit with nonlinear regressions determined by comparing best fit values in the same software. KM and Vmax were determined and reported as KM and kcat=Vmax/[enzyme].

[2] = Fe(II) oxidation kinetics, FerroZine quench assay; assay type: biochemical; conditions: pH 5
Protocol: as §1

[3] = O2 consumption during Mn oxidation, Clark type electrode; assay type: biochemical; conditions: for lag time before O2 consumption is detected: after addition of MnCl2, across all runs
Protocol: Also indicative of MCOs is the consumption of O2 and its reduction to H2O, terminating electron transfer at the trinuclear Cu center. O2 consumption was measured on a Clark type electrode during Mn oxidation by the recombinant Mn oxidase complex. Following the addition of MnCl2 to the enzyme, there is about a 30 s lag time before O2 consumption is detected across all runs (FIG. 7A). Starting with a higher concentration of MnCl2, results in a faster initial velocity of O2 consumption (FIG. 7B). […] This stoichiometry supports the MCO mechanism of the four electron reduction required to generate 2 mol H2O from 1 mol O2.
Oxygen consumption was measured on a Rank Brothers LTD model 10 electrode with the polarizing voltage set to 630 mV. The 2 ml water-jacketed reaction cell was kept at 37° C. using a water bath. The instrument was calibrated by taking a zero measurement with Ar purged water and a 100% measurement with atmospheric oxygenated water assuming 214 μM O2 at […]. A computer interfaced with the electrode measured 02 every 1 s. Data collection began about 1 min before 10 μL of 1 mg/ml Mnx protein (^˜24 nM final if mass of recombinant Mn oxidase complex is 211 kDa) was added through the 2 mm diameter opening in the cap and allowed to equilibrate with 37° C. 20 mM HEPES pH 7.8 50 mM NaCl. Another minute of baseline reading was taken before adding 10 μL of various concentrations of MnCl2. The data was plotted Time (min) vs. % O2 remaining, if addition of MnCl2 is t=0. The initial O2 consumption velocities of all runs were plotted against starting MnCl2 concentration. Total O2 consumed was calculated by taking the difference of final from initial O2 concentrations then plotted against MnCl2 concentration and fitted with a linear regression, forced through the xy origin.

[4] = Mn(II) oxidation kinetics, leucoberbelin blue (LBB) quench assay; assay type: biochemical
Protocol: Kinetic experiments were performed on the Molecular Devices SpectraMax® M2 microplate reader spectrophotometer at 22° C. with purified protein. […] Reactions were carried out with 10 μg Mnx (final 240 nM) 100 mM in phosphate-citrate buffer pH 3-8 and 20 mM CHES, HEPES, and MES at pH 7-10. Dimethoxyphenol (DMP) oxidation was followed by measuring the increase in absorbance at 468 nm and ε=49.6 mM-1 cm-1. These assays were performed in at least two independent trials in triplicate. Fe(II) (ferrous ammonium sulfate) oxidation was measured by quenching 200 μl reactions with 50 μl of the Fe(II) chelating colorimetric assay FerroZine® (15 mM) and a ferrous ammonium sulfate standard curve, noting the absorbance at 570 nm. Fe(II) oxidation reactions were performed with 10 μg recombinant Mn oxidase complex in 100 mM Na acetate-acetic acid buffer (pH 4-5.5). Mn(II) (MnCl2) oxidation in 20 mM HEPES (pH 7-8.5) was measured by quenching 5 μl of 200 μl reactions with 195 μl leucoberbelin blue (LBB) colorimetric reagent and reading the absorbance at 618 nm. Working LBB reagent was prepared by diluting concentrated stock (100 mg LBB in 25 ml 0.4% NaOH) 1:10 into 1% acetic acid. A KMnO4 standard curve was used to determine MnO2 oxide equivalent concentration. The metal substrate assays were performed in five independent trials then the high and low values were discarded from each concentration. The linear part of each curve was fit plotted and fit with a linear regression in GraphPad Prism®. These slopes were converted to the appropriate kinetic units, plotted, and fit with nonlinear regressions determined by comparing best fit values in the same software. KM and Vmax were determined and reported as KM and kcat=Vmax/[enzyme].

Row | Molecule | Km (Bacillus subtilis CotA) | kcat (Bacillus subtilis CotA) | kcat (B. licheniformis CotA) | 2,6-DMP oxidation activity [1] | Fe(II) kcat [2] | Km [2] | lag time before O2 consumption is detected [3] | lag time before O2 consumption is detected ([3]; listed as recombinant Mnx complex) | slope of MnCl2 added vs. O2 consumed ([3]; linear regression forced through the origin, 37° C., HEPES pH 7.8) | pH optimum of Mn oxidation [4] | Mn(II) K0.5 ([4]; HEPES dialyzed protein) | Mn(II) kcat ([4]; HEPES dialyzed protein) | Mn(II) K0.5 ([4]; Tris dialyzed protein) | Mn(II) kcat ([4]; Tris dialyzed protein)
1 | CCn1c(=NN=c2sc3cc(S(=O)(=O)O)ccc3n2CC)sc2cc(S(=O)(=O)O)ccc21 [ABTS, 2,2′-azino-bis(3-ethylbenzthiazoline-6-sulphonic acid)] | 6.5 µM | 83 s⁻¹ | 322 s⁻¹ |  |  |  |  |  |  |  |  |  |  | 
2 | B1 |  |  |  | inactive | 0.0744 ± 0.00779 s⁻¹ | 9 µM | ~30 s | about 30 s | about 0.252±0.0149 | 7.8 | 123 ± 7.00 µM | 16.1 ± 0.941 s⁻¹ | 134.6 ± 9.16 µM | 12.9 ± 0.758 s⁻¹

From patent publication US9631180B2, “Recombinant manganese oxidase” (OREGON HEALTH & SCIENCE UNIVERSITY, priority 2013, dated 2017)
